Reference: patent US20080207488A1, “Method for Detecting Peptides Comprising a Cross-B Structure” (priority 2005, published 2008)

What was measured:
tPA = target: T1, tPA (Homo sapiens, UniProt P00750); test: Plasminogen-activation assay (tPA-mediated Plg to Pls, S-2251); assay type: biochemical; details: 100 μg ml^−1 protein
T1 construct: purchased Boehringer-Ingelheim (Actilyse, Alteplase)
Experimental: Plasmin (Pls) activity was assayed as described^7. Peptides and proteins that were tested for their stimulatory ability were regularly used at 100 μg ml^−1. […] Chromogenic substrate S-2251 (Chromogenix, Instrumentation Laboratory SpA, Milano, Italy) was used to measure Pls activity. Conversion of zymogen factor XII (#233490, Calbiochem, EMD Biosciences, Inc., San Diego, Calif.) to proteolytically active factor XII (factor XIIa) was assayed by measurement of the conversion of chromogenic substrate Chromozym-PK (Roche Diagnostics, Almere, The Netherlands) by kallikrein. Chromozym-PK was used at a concentration of 0.3 mM. Factor XII, human plasma prekallikrein (#529583, Calbiochem) and human plasma cofactor high-molecular weight kininogen (#422686, Calbiochem) were used at concentrations of 1 μg ml^−1. […] Assays were performed using microtiter plates (Costar, Cambridge, Mass., USA). Peptides and proteins were tested for their ability to activate factor XII. […] The conversion of Chromozym-PK was recorded kinetically at 37° C. for at least 60 minutes. […] With S-2222, activation of factor XII in plasma was measured, using 60% v/v plasma, diluted with substrate and H2O with or without potential cofactor. Furthermore, auto-activation of factor XII was measured by incubating 53 μg ml^−1 purified factor XII in 50 mM Tris-HCl buffer pH 7.5 with 1 mM EDTA and 0.001% v/v Triton-X100, with S-2222 and H2O with or without potential cofactor.
Formulated protein therapeutics were obtained from the local hospital pharmacy and were used as supplied by the manufacturers. […] Enhancement in fluorescence of ThT and Congo red was measured with all formulated protein therapeutics. […]
To prepare structurally altered ovalbumin (OVA) with amyloid cross-β structure conformation, purified OVA (Sigma, A-7641, lot 071k7094) was heated to 85° C. […] Native OVA (nOVA) and heat-denatured OVA (dOVA) were tested in the ThT fluorescence assay and in the Plg-activation assay. In the fluorescence assay and in the Plg-activation assay, 25 and 100 μg ml^−1 nOVA and dOVA were tested, respectively. […]

[1] = ThT fluorescence of LPS-protein mixtures; assay type: physicochemical
Experimental: (§1) Fluorescence of ThT-protein/peptide adducts was measured as follows. […] Fluorescence was measured at 485 nm upon excitation at 435 nm. Background signals from buffer, buffer with ThT and protein/peptide solution without ThT were subtracted from corresponding measurements with protein solution incubated with ThT. […] Fluorescence was measured in triplicate on a Hitachi F-4500 fluorescence spectrophotometer (Ltd., Tokyo, Japan).
Subsequently, the ability to enhance ThT fluorescence was determined with 40× diluted solution, as described above. […]

[2] = ThT fluorescence of CpG-ODN-protein mixtures; assay type: physicochemical; details: for increase in ThT fluorescence: 1 mg ml^−1 protein, 30 min. at room temperature (FIG. 4D, E)
Experimental: as §1
Enhancement of ThT fluorescence was measured similarly as described above. […]

Balb/c mice = test: Immunization of Balb/c mice with ovalbumin and amyloid-like ovalbumin; assay type: in vivo; details: without adjuvant
Experimental: Eight to ten weeks old female Balb/c mice are immunized with OVA according to two immunization regimes (Central Animal Laboratories, Utrecht University, The Netherlands). Pre-immune serum was collected prior to the immunizations. In one regime two groups of five mice were subcutaneously injected five consecutive days per week, for three consecutive weeks. Doses comprised 10 μg native OVA or heat-denatured OVA for each injection. Alternatively, according to the second protocol, three groups of five mice were injected once intraperitoneally with doses comprising 5 μg nOVA, 5 μg OVA or 5 μg native OVA mixed 1:1 with complete Freund's adjuvant (CFA). Each week, blood was taken. After three weeks, a second dose was given. Incomplete Freund's adjuvant (IFA) was used instead of CFA. Blood was taken after one week after the start of the immunization. Antibody titers in sera were determined and sera were analyzed for the presence of cross-β structure conformation specific antibodies. For this purpose, nOVA was coated onto wells of 96-wells ELISA plates and incubated with dilution series of sera. Sera of the groups of five mice were pooled prior to the analyses. Plates were washed and subsequently incubated with peroxidase-conjugated rabbit anti-mouse immunoglobulins (RAMPO, P0260, DAKOCytomation, Glostrup, Denmark). Plates were subsequently developed with tetramethylbenzidine (TMB) substrate. […]

[3] = target: T2, human fibronectin finger 4,5 (Fn F4,5) fragment (Homo sapiens, UniProt P02751); test: ELISA, binding of fibronectin F4,5 to coated (mis)folded proteins; details: coated protein, FIG. 7D-H
T2 construct: human fibronectin finger 4,5 (Fn F4,5) fragment; made in house; host or cells: HEK293E cells, transient transfection, protein purified from the medium
T2 sequence (P02751 182-276 limits assumed): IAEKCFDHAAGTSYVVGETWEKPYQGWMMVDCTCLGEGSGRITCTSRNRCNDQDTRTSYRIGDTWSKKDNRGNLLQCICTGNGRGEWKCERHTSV
Experimental: The plates were blocked using Blocking reagent (Roche 1112589). A dilution series of the protein of interest was applied to the coated proteins and wells were subsequently washed using TBS-T (50 mM Tris pH 7.3, 150 mM NaCl and 0.1% Tween20). Bound protein is detected by the FLAG-tag using 1:3000 anti-FLAG-HRP (Sigma A-8592) in PBS-T, or by 1:1000 Ni-NTA-HRP (Qiagen 34530) in PBS-T. The HRP reaction Is performed using the TMB substrate (Biosource 4501103 or Tebu Bio 101TMB100-500), stopped using 10% H2SO4 and absorbance was measured at 450 nm.

T1 sequence (P00750 36-562): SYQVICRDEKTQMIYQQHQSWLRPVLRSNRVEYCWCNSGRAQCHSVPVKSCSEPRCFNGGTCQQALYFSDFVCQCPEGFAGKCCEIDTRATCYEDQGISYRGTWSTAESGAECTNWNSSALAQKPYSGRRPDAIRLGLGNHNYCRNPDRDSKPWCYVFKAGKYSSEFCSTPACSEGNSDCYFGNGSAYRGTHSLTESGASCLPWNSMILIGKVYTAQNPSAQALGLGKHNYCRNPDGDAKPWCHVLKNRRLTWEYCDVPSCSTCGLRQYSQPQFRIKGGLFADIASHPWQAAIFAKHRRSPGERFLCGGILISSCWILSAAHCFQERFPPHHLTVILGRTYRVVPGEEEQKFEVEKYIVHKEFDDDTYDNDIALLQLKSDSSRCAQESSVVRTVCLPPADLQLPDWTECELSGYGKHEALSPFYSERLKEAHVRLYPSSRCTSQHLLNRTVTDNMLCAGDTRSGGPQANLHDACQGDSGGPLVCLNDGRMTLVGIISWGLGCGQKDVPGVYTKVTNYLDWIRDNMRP

B1: endostatin: protein therapeutic endostatin (EntreMed, Inc.) (protein)
chain: HSHRDFQPVLHLVALNSPLSGGMRGIRGADFQCFQQARAVGLAGTFRAFLSSRLQDLYSIVRRADRAAVPIVNLKDELLFPSWEALFSGSEGPLKPGARIFSFDGKDVLRHPTWPQKSVWHGSDPNGRRLTESYCETWRTEAPSATGQASSLLGGRLLGQSAASCHHAYIVLCIENSFMTASK
stimulation of tPA-mediated conversion of Plg to Pls (tPA): absence of tPA activating properties | ThT fluorescence enhancement ([1]; 200 μg ml^−1 LPS (FIG. 4D, E)): approximately 8 times | ThT fluorescence enhancement ([1]; 400 μg ml^−1 LPS (FIG. 4D, E)): ~20 times | ThT fluorescence enhancement ([1]; 600 μg ml^−1 LPS (FIG. 4D, E)): ~26 times | ThT fluorescence enhancement ([1]; 1 mg ml^−1 protein exposed to 600 μg ml^−1 LPS (FIG. 4C)): approximately 10 times | increased ThT fluorescence ([2]; 1 mg ml^−1 protein exposed to 21.4 μg ml^−1 CPG-ODN (FIG. 4F)): approximately 10 factor | increase in ThT fluorescence ([2]; 10.4 μg ml^−1 CPG-ODN): ~39 times | increase in ThT fluorescence ([2]; 21.7 μg ml^−1 CPG-ODN): ~56 times

B2: nOVA: native chicken ovalbumin (protein)
chain: GSIGAASMEFCFDVFKELKVHHANENIFYCPIAIMSALAMVYLGAKDSTRTQINKVVRFDKLPGFGDSIEAQCGTSVNVHSSLRDILNQITKPNDVYSFSLASRLYAEERYPILPEYLQCVKELYRGGLEPINFQTAADQARELINSWVESQTNGIIRNVLQPSSVDSQTAMVLVNAIVFKGLWEKAFKDEDTQAMPFRVTEQESKPVQMMYQIGLFRVASMASEKMKILELPFASGTMSMLVLLPDEVSGLEQLESIINFEKLTEWTSSNVMEERKIKVYLPRMKMEEKYNLTSVLMAMGITDVFSSSANLSGISSAESLKISQAVHAAHAEINEAGREVVGSAEAGVDAASVSEEFRADHPFLFCIKHIATNAVLFFGRCVSP
anti-nOVA antibody titers in pooled sera (Balb/c mice): Titers were also obtained

B3: reduced and alkylated OVA: reduced and alkylated ovalbumin (protein)
chain: GSIGAASMEFCFDVFKELKVHHANENIFYCPIAIMSALAMVYLGAKDSTRTQINKVVRFDKLPGFGDSIEAQCGTSVNVHSSLRDILNQITKPNDVYSFSLASRLYAEERYPILPEYLQCVKELYRGGLEPINFQTAADQARELINSWVESQTNGIIRNVLQPSSVDSQTAMVLVNAIVFKGLWEKAFKDEDTQAMPFRVTEQESKPVQMMYQIGLFRVASMASEKMKILELPFASGTMSMLVLLPDEVSGLEQLESIINFEKLTEWTSSNVMEERKIKVYLPRMKMEEKYNLTSVLMAMGITDVFSSSANLSGISSAESLKISQAVHAAHAEINEAGREVVGSAEAGVDAASVSEEFRADHPFLFCIKHIATNAVLFFGRCVSP
affinity of fibronectin F4,5 (detection anti-FLAG HRP) [3]: acted as its native control
